# ± gives the uncertainty stated by the source.
# Assay: protein stability index of a GFP-peptide fusion (yeast GPS) (PSI 1-4); higher = more stable; sorted into four equal gates, so the index is relative within each strain
# Conditions: doa10∆
# How it was run: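 For each peptide, the protein stability index sums the read frequency in every gate after multiplying it by the gate number. Read frequencies came from plasmids that were PCR-amplified from each gate and Illumina-sequenced, with reads assigned to strains by barcodes. The gates were four equal bins of GFP/Cherry fluorescence ratio applied to mid-log yeast in leucine-free medium carrying a pooled library of tiled 17-residue yeast protein peptides fused downstream of GFP on a Cherry-expressing plasmid.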
row,Sequence,protein stability index
1,TSLPDWCQEAFPSSETT [BRR2],2.93 ± 0.075
2,TSNKEGFNSIWKIPQND [SSN2],3.29 ± 0.26
3,TSPGYSPGSPAYSPKQD [RPO21],2.31 ± 0.087
4,TSQKMTSTVNRLNTVTR [MCD1],3.16 ± 0.094
5,TSRIDEEKPGLIITRKA [SMC4],2.91 ± 0.063
6,TSSAFFYQQVHKKDRLQ [SIR4],2.43 ± 0.048
7,TSSLQLYKFQNFQDLSY [YML103C/NUP188],2.81 ± 0.065
8,TSSRQTVFLPMVGLVDP [RPT5],2.55 ± 0.038
9,TSSTPSPIKNGSCTRQL [YOR098C/NUP1],3.26 ± 0.064
10,TSTITKYKQLLLKDDTY [RPN3],2.71 ± 0.12
11,TSTNPNGLGTSHINTNV [ARP7],3.14 ± 0.068
12,TSVTRRSPVFALNMLPS [GRR1],1.45 ± 0.038
13,TTGGDYILSLVSIKDST [YMR129W/POM152],1.99 ± 0.042
14,TTKRLWSEITESMSYLP [MCD1],3.01 ± 0.12
15,TTLGKLSTSVGWKYEDV [RPL16A],2.87 ± 0.069
16,TTLNIKVEKRVLGLTIL [SMB1],1.86 ± 0.075
17,TTLVTRREELQQRIREI [SMC3],3.06 ± 0.2
18,TTPYMTKYERARILGTR [RPO26],2.97 ± 0.14
19,TTQDQCKLTLDINVELF [RPB8],2.97 ± 0.054
20,TTSYIKEQENITIQDLL [DPB4],3.09 ± 0.19
21,TTTLAFRFQGGIIVAVD [PRE2],3.27 ± 0.096

row,Sequence,protein stability index
1,TTTSFTTSEATANDRQI [RPN4],2.95 ± 0.051
2,TTVKPLFQNVPEQGEEP [YAR002W/NUP60],3.08 ± 0.07
3,TVDGRLYQLFKTCIQGI [YJL039C/NUP192],2.86 ± 0.16
4,TVGSSNGGLIHVVTREK [RPO21],2.98 ± 0.15
5,TVISGDPNLELDQVGVP [RPO21],3.48 ± 0.23
6,TVKTSDDYVLRIFAIAF [RPS1A],2.534 ± 0.02
7,TVLQKNSLLLDSTPEEV [YML103C/NUP188],2 ± 0.052
8,TVRASSLQDLIYKRGQA [SMC2],2.12 ± 0.073
9,TYANVLIPCKYLNRHAD [RPN7],1.1 ± 0.08
10,TYEIICDQTKSVPLMIN [RRP43],1.66 ± 0.073
11,TYGISVVDVALKYPELS [NUT1],2.04 ± 0.057
12,TYRCSIKNLPADVSKLM [SRB2],2.56 ± 0.061
13,VAAERAARKAANKEKRA [RPL7A],2.36 ± 0.21
14,VAGSKCWAVRADVHFLD [RRP45],2.07 ± 0.17
15,VAHITTKSPAYPMMHQV [RGR1],1.79 ± 0.046
16,VAIGLNGKIWVKCEELS [RRP40],1.58 ± 0.2
17,VAKRRFEYSKYRPLTPS [RRP6],3.27 ± 0.066
18,VALTSFLGYKAGMTTIV [RPL3],2.96 ± 0.11
19,VAQPDSLRETNTTDPLG [SIR2],3.09 ± 0.17
20,VAQQQVQRQIEQQKGQQ [SNF5],3.42 ± 0.079
21,VDDVLETISAIEHPMTS [RPN1],3.15 ± 0.13

# Same assay, conditions: pdr5∆
row,Sequence,protein stability index
1,TSLPDWCQEAFPSSETT [BRR2],3.08 ± 0.099
2,TSNKEGFNSIWKIPQND [SSN2],3.72 ± 0.3
3,TSPGYSPGSPAYSPKQD [RPO21],2.1 ± 0.063
4,TSQKMTSTVNRLNTVTR [MCD1],2.94 ± 0.18
5,TSRIDEEKPGLIITRKA [SMC4],3.07 ± 0.052
6,TSSAFFYQQVHKKDRLQ [SIR4],2 ± 0.046
7,TSSLQLYKFQNFQDLSY [YML103C/NUP188],3.04 ± 0.064
8,TSSRQTVFLPMVGLVDP [RPT5],2.62 ± 0.044
9,TSSTPSPIKNGSCTRQL [YOR098C/NUP1],3.02 ± 0.045
10,TSSVILGSQSKSDEGGS [YOR098C/NUP1],2.23 ± 0.12
11,TSTITKYKQLLLKDDTY [RPN3],2.73 ± 0.15
12,TSTNPNGLGTSHINTNV [ARP7],3.28 ± 0.061
13,TSVTRRSPVFALNMLPS [GRR1],1.61 ± 0.037
14,TTGGDYILSLVSIKDST [YMR129W/POM152],2.04 ± 0.034
15,TTKRLWSEITESMSYLP [MCD1],2.91 ± 0.095
16,TTLGKLSTSVGWKYEDV [RPL16A],3 ± 0.071
17,TTLNIKVEKRVLGLTIL [SMB1],2.79 ± 0.093
18,TTPYMTKYERARILGTR [RPO26],3.3 ± 0.091
19,TTQDQCKLTLDINVELF [RPB8],2.96 ± 0.07
20,TTSYIKEQENITIQDLL [DPB4],2.83 ± 0.17
21,TTTLAFRFQGGIIVAVD [PRE2],3.07 ± 0.083

row,Sequence,protein stability index
1,TTTSFTTSEATANDRQI [RPN4],3.13 ± 0.055
2,TTVKPLFQNVPEQGEEP [YAR002W/NUP60],3.3 ± 0.06
3,TVDGRLYQLFKTCIQGI [YJL039C/NUP192],2.98 ± 0.23
4,TVGSSNGGLIHVVTREK [RPO21],3.19 ± 0.12
5,TVISGDPNLELDQVGVP [RPO21],3.2 ± 0.13
6,TVKTSDDYVLRIFAIAF [RPS1A],2.308 ± 0.018
7,TVLQKNSLLLDSTPEEV [YML103C/NUP188],2.28 ± 0.063
8,TVRASSLQDLIYKRGQA [SMC2],3 ± 0.088
9,TYANVLIPCKYLNRHAD [RPN7],1.25 ± 0.089
10,TYEIICDQTKSVPLMIN [RRP43],2.3 ± 0.11
11,TYGISVVDVALKYPELS [NUT1],2.42 ± 0.075
12,TYRCSIKNLPADVSKLM [SRB2],2.83 ± 0.05
13,VAAERAARKAANKEKRA [RPL7A],1.54 ± 0.12
14,VAGSKCWAVRADVHFLD [RRP45],2.23 ± 0.14
15,VAHITTKSPAYPMMHQV [RGR1],1.91 ± 0.054
16,VAIGLNGKIWVKCEELS [RRP40],2.25 ± 0.24
17,VAKRRFEYSKYRPLTPS [RRP6],3.28 ± 0.084
18,VALTSFLGYKAGMTTIV [RPL3],2.75 ± 0.077
19,VAQPDSLRETNTTDPLG [SIR2],3.45 ± 0.17
20,VAQQQVQRQIEQQKGQQ [SNF5],3.14 ± 0.1
21,VDDVLETISAIEHPMTS [RPN1],3.2 ± 0.091

# Same assay, conditions: san1∆
row,Sequence,protein stability index
1,TSLPDWCQEAFPSSETT [BRR2],3.25 ± 0.072
2,TSNKEGFNSIWKIPQND [SSN2],3.45 ± 0.15
3,TSPGYSPGSPAYSPKQD [RPO21],2.39 ± 0.11
4,TSQKMTSTVNRLNTVTR [MCD1],3.57 ± 0.18
5,TSRIDEEKPGLIITRKA [SMC4],3.07 ± 0.044
6,TSSAFFYQQVHKKDRLQ [SIR4],2.26 ± 0.053
7,TSSLQLYKFQNFQDLSY [YML103C/NUP188],2.84 ± 0.055
8,TSSRQTVFLPMVGLVDP [RPT5],2.39 ± 0.044
9,TSSTPSPIKNGSCTRQL [YOR098C/NUP1],2.68 ± 0.046
10,TSTITKYKQLLLKDDTY [RPN3],2.89 ± 0.073
11,TSTNPNGLGTSHINTNV [ARP7],2.96 ± 0.061
12,TSVTRRSPVFALNMLPS [GRR1],1.51 ± 0.061
13,TTGGDYILSLVSIKDST [YMR129W/POM152],1.89 ± 0.052
14,TTKRLWSEITESMSYLP [MCD1],2.99 ± 0.11
15,TTLGKLSTSVGWKYEDV [RPL16A],2.97 ± 0.078
16,TTLNIKVEKRVLGLTIL [SMB1],2.39 ± 0.14
17,TTPYMTKYERARILGTR [RPO26],2.56 ± 0.18
18,TTQDQCKLTLDINVELF [RPB8],2.93 ± 0.037
19,TTSYIKEQENITIQDLL [DPB4],2.86 ± 0.082
20,TTTLAFRFQGGIIVAVD [PRE2],2.81 ± 0.072

row,Sequence,protein stability index
1,TTTSFTTSEATANDRQI [RPN4],2.55 ± 0.063
2,TTVKPLFQNVPEQGEEP [YAR002W/NUP60],3.32 ± 0.04
3,TVDGRLYQLFKTCIQGI [YJL039C/NUP192],3.03 ± 0.11
4,TVGSSNGGLIHVVTREK [RPO21],2.87 ± 0.13
5,TVISGDPNLELDQVGVP [RPO21],2.48 ± 0.23
6,TVKTSDDYVLRIFAIAF [RPS1A],2.453 ± 0.023
7,TVLQKNSLLLDSTPEEV [YML103C/NUP188],1.38 ± 0.079
8,TVRASSLQDLIYKRGQA [SMC2],2.62 ± 0.08
9,TYANVLIPCKYLNRHAD [RPN7],1.18 ± 0.13
10,TYEIICDQTKSVPLMIN [RRP43],1.49 ± 0.11
11,TYGISVVDVALKYPELS [NUT1],2.04 ± 0.078
12,TYRCSIKNLPADVSKLM [SRB2],2.33 ± 0.05
13,VAHITTKSPAYPMMHQV [RGR1],1.85 ± 0.067
14,VAIGLNGKIWVKCEELS [RRP40],2.94 ± 0.16
15,VAKRRFEYSKYRPLTPS [RRP6],3.15 ± 0.035
16,VALTSFLGYKAGMTTIV [RPL3],2.69 ± 0.078
17,VAQPDSLRETNTTDPLG [SIR2],2.41 ± 0.12
18,VAQQQVQRQIEQQKGQQ [SNF5],3.46 ± 0.075
19,VDDVLETISAIEHPMTS [RPN1],2.79 ± 0.16

# Same assay, conditions: ubr1∆
row,Sequence,protein stability index
1,TSLPDWCQEAFPSSETT [BRR2],3.01 ± 0.15
2,TSPGYSPGSPAYSPKQD [RPO21],1.77 ± 0.05
3,TSQKMTSTVNRLNTVTR [MCD1],3.09 ± 0.098
4,TSRIDEEKPGLIITRKA [SMC4],3 ± 0.057
5,TSSAFFYQQVHKKDRLQ [SIR4],2.44 ± 0.032
6,TSSLQLYKFQNFQDLSY [YML103C/NUP188],2.65 ± 0.071
7,TSSRQTVFLPMVGLVDP [RPT5],2.16 ± 0.033
8,TSSTPSPIKNGSCTRQL [YOR098C/NUP1],3.09 ± 0.049
9,TSSVILGSQSKSDEGGS [YOR098C/NUP1],1.81 ± 0.15
10,TSTITKYKQLLLKDDTY [RPN3],2.9 ± 0.084
11,TSTNPNGLGTSHINTNV [ARP7],3.33 ± 0.057
12,TSVTRRSPVFALNMLPS [GRR1],1.73 ± 0.033
13,TTGGDYILSLVSIKDST [YMR129W/POM152],1.68 ± 0.028
14,TTKRLWSEITESMSYLP [MCD1],2.73 ± 0.069
15,TTLGKLSTSVGWKYEDV [RPL16A],2.73 ± 0.073
16,TTLNIKVEKRVLGLTIL [SMB1],2.27 ± 0.08
17,TTPYMTKYERARILGTR [RPO26],3.45 ± 0.09
18,TTQDQCKLTLDINVELF [RPB8],3.3 ± 0.053
19,TTSYIKEQENITIQDLL [DPB4],3.02 ± 0.27
20,TTTLAFRFQGGIIVAVD [PRE2],3.26 ± 0.09

row,Sequence,protein stability index
1,TTTSFTTSEATANDRQI [RPN4],3.25 ± 0.042
2,TTVKPLFQNVPEQGEEP [YAR002W/NUP60],3.21 ± 0.052
3,TVGSSNGGLIHVVTREK [RPO21],3.09 ± 0.07
4,TVISGDPNLELDQVGVP [RPO21],3.04 ± 0.16
5,TVKTSDDYVLRIFAIAF [RPS1A],2.55 ± 0.016
6,TVLQKNSLLLDSTPEEV [YML103C/NUP188],1.42 ± 0.049
7,TVRASSLQDLIYKRGQA [SMC2],2.51 ± 0.036
8,TYANVLIPCKYLNRHAD [RPN7],1.19 ± 0.095
9,TYEIICDQTKSVPLMIN [RRP43],1.55 ± 0.069
10,TYGISVVDVALKYPELS [NUT1],2.6 ± 0.041
11,TYRCSIKNLPADVSKLM [SRB2],2.69 ± 0.044
12,VAAERAARKAANKEKRA [RPL7A],1.71 ± 0.082
13,VAGSKCWAVRADVHFLD [RRP45],2.26 ± 0.22
14,VAHITTKSPAYPMMHQV [RGR1],1.68 ± 0.068
15,VAIGLNGKIWVKCEELS [RRP40],1.73 ± 0.1
16,VAKRRFEYSKYRPLTPS [RRP6],2.96 ± 0.049
17,VALTSFLGYKAGMTTIV [RPL3],2.85 ± 0.094
18,VAQPDSLRETNTTDPLG [SIR2],3.08 ± 0.14
19,VAQQQVQRQIEQQKGQQ [SNF5],3.19 ± 0.089
20,VDDVLETISAIEHPMTS [RPN1],2.91 ± 0.083
